This is an account of results in the Immune Epitope Database (IEDB).

One experiment has as its target HLA-A*11:01. The experiment is described as follows: IEDB peptide-MHC binding, purified MHC/competitive/radioactivity; filed as Kd, often an IC50 or EC50 that approximates it; ≥ and ≤ were set here for values at or beyond the usual limits of such assays. The settings on record: source organism: Vaccinia virus WR.
Another experiment has as its target HLA-B*07:02. The experiment is described as above. As to conditions: source organism: Vaccinia virus WR.

In general, Kd refers to a measure of binding affinity in units of concentration. On to AFEFINSLLK, for which the Kd with HLA-A*11:01 came to 470 nM.

As to LPRPDTRHL, the Kd with HLA-B*07:02 came out at 14 nM.

Regarding RPSTRNFFEL, in the experiment with HLA-B*07:02, the Kd stood at 11 nM.
